Target: β2 adrenoceptor, tagged at the amino-terminus with the FLAG epitope (UniProt P07550)
Assay: cell-based or functional assay

Substance: membrane-tethered Gsα (tetGsα) (from UniProt P07550 1-64; P07550 343-412)
- GTPγS-sensitive high-affinity agonist binding sites: 30%
- basal GTPase activity, tetGsα membranes compared to Gsα membranes: 1.6 fold
- isoproterenol-stimulated GTPase activity, tetGsα membranes compared to Gsα membranes: 2.8 fold

— patent US6448377
